Experimental data from PMC4092090, “Investigation of a MMP-2 Activity-Dependent Anchoring Probe for Nuclear Imaging of Cancer” (PLoS ONE, 2014).
Like-named read-outs stand apart in the source and are kept apart here.

What was measured:
[1] = target: T1, Human-recombinant MMP-2 protein (Homo sapiens, UniProt P08253); test: Cleavage assay; assay type: biochemical; details: activated MMP-2 1–5 nM, 370 kBq probe, 37°C, 2 hr, pH 7.5 assay buffer, RP-HPLC, Fig. 3b
T1 construct: purchased R & D Systems, Inc. 902-MP-010
T1 sequence (P08253 110-660): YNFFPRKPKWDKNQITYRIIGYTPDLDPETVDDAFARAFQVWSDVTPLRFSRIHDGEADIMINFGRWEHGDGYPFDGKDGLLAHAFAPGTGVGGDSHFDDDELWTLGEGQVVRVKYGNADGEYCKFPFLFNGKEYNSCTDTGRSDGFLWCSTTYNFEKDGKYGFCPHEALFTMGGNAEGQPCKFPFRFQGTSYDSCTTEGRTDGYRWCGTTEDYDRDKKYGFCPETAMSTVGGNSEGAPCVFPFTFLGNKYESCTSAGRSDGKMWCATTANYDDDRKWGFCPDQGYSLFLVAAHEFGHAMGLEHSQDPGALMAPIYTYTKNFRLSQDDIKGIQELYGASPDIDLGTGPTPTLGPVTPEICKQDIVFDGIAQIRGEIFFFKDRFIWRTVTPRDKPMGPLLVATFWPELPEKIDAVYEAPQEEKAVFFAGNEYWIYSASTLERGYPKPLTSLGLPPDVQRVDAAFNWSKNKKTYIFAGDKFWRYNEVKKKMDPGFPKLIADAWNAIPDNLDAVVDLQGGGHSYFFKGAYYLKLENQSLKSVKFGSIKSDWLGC
Method: Human-recombinant MMP-2 protein (902-MP-010, R & D Systems, Inc., Minneapolis, MN USA) was activated with p-aminophenylmercuric acetate (1 mM) in assay buffer (50 mM Tris-HCl, 150 mM NaCl, 10 mM CaCl2, 5 µM ZnCl2, 0.02% Brij 35, pH 7.5). MDAP1000, MDAP3000, and MDAP5000 (370 kBq) were incubated at 37°C for 2 hr with activated MMP-2 (1–5 nM) and a MMP inhibitor (0 or 100 µM, GM6001, Merck KGaA, Darmstadt, Germany). The reaction was quenched by addition of methanol, and the percentage of cleaved peptide was estimated by RP-HPLC.

[2] = test system: HT1080 human fibrosarcoma cells; test: Cellular uptake study; assay type: cell-based
Method: HT1080 human fibrosarcoma cells were purchased from American Type Culture Collection (ATCC, Manassas, VA USA) and cultured in DMEM with low glucose (Invitrogen), 10% fetal bovine serum (FBS), and penicillin/streptomycin. MMP-2 cDNA was cloned into the pENTR vector (Invitrogen) and inserted into the pLenti6 vector (Invitrogen) as previously described, [7]. […] Protein quantitation was performed by BCA protein assay (Thermo Fisher Scientific, Inc. Rockford, IL USA). The cellular uptake study of MDAP3000 pretreated with activated MMP-2 (63 nM) in the presence or absence of GM6001 (100 µM) was performed as described above.

[3] = test system: HT1080 tumor bearing mice; set-up: species or system mouse (Balb/c nu-nu); details: mouse, in vivo, iv; for Radioactivity biodistribution, Blood / Radioactivity biodistribution, Heart / Radioactivity biodistribution, Intestine / Radioactivity biodistribution, Kidneys / Radioactivity biodistribution, Liver / Radioactivity biodistribution, Lung / Radioactivity biodistribution, Muscle / Radioactivity biodistribution, Pancreas / Radioactivity biodistribution, Spleen / Radioactivity biodistribution, Stomach / Radioactivity biodistribution, Tumor / T/B (tumor to blood ratio): 37 kBq
Method: Female Balb/c nu-nu mice (5 weeks old, Japan SLC, Inc., Shizuoka, Japan) were housed under a 12-h light/12-h dark cycle and given free access to food and water. HT1080 cells (5×10^6 cells/100 μl PBS (-)/mouse) were subcutaneously inoculated into the right hind leg of Balb/c nu-nu mice. Animals were used for experiments two weeks after inoculation when the mean tumor size was 5.7±2.2 mm along the major axis. […]3000 and […] (37 kBq, 100 μl in PBS including 3% bovine serum albumin and 0.1% Tween 80) were injected intravenously into the tail vein of tumor bearing mice. The mice were sacrificed at various post-injection time points (n = 3 for each time point), and the organs of interest including the tumor tissues were collected for determination of the weights. The radioactivity of each sample was measured with a NaI well-type scintillation counter. From fitting to the two phase decay curves for blood radioactivity data analyzed by GraphPad Prism 6 (GraphPad Software, San Diego, CA), whole body pharmacokinetic parameters such as blood half-lives, distribution volume, mean residence time and total clearance were calculated for each of the probes and the values compared. Simple pharmacokinetic analysis using a single tissue compartment model was applied to the biodistribution data to calculate rate constants (K1 and k2) for radioactivity transfer from blood to tumor and clearance from tumor to blood by PMOD version 3.2. In addition, MDAP3000 (7.4 MBq in 200 μl) was injected intravenously into the tail vein of tumor bearing mice for metabolite analysis in tumors excised 3, 6, and 24 hr post injection (n = 2 each). Tumor homogenates were prepared on ice and insoluble material was removed by centrifugation after methanol treatment. The resulting supernatant was analyzed by RP-HPLC.

For “Palmitoyl-Dap(p-SCN-Bn-DTPA-^111In)-10-Adc-Gly-Pro-Leu-Gly-Val-Arg-Gly-Lys(ivDde)-PEG3000 [MDAP3000]”, the “Cleavage by MMP-2” value [1] was “concentration-dependent manner”, the “Cellular accumulation (radioactivity in tumor cells)” value ([2]; 5×10^5 HT1080 cells, FBS-free DMEM, 37 kBq probe, 30 min incubation, radioactivity counting, Fig. 3a) was “significantly lower radioactivity” and the “Increased cellular uptake of MMP-2 pretreated probe with additional MMP inhibitor” value ([2]; HT1080 cells, activated MMP-2 (63 nM) plus GM6001 (100 µM), Fig. 3c) was “completely blocked”. The “Cellular accumulation of probe pretreated with MMP-2” value ([2]; HT1080 cells, probe pretreated with activated MMP-2 (63 nM), 30 min, Fig. 3c) was “accumulated in cells to higher levels”, the “Blood clearance (in words)” value [3] was “rapid blood clearance” and the “Tumor accumulation (in words)” value [3] was “high tumor accumulation”. For the same substance, the “Radioactivity biodistribution, Blood” value ([3]; 0.25 h) was 44.98±2.53 % injected dose per gram, the “Radioactivity biodistribution, Heart” value ([3]; 0.25 h) was 9.26±0.86 % injected dose per gram and the “Radioactivity biodistribution, Intestine” value ([3]; 0.25 h) was 3.59±0.24 % injected dose per gram. For the same substance, the “Radioactivity biodistribution, Kidneys” value ([3]; 0.25 h) was 11.85±0.84 % injected dose per gram, the “Radioactivity biodistribution, Liver” value ([3]; 0.25 h) was 18.83±1.38 % injected dose per gram and the “Radioactivity biodistribution, Lung” value ([3]; 0.25 h) was 20.44±4.77 % injected dose per gram. For the same substance, the “Radioactivity biodistribution, Muscle” value ([3]; 0.25 h) was 1.72±0.76 % injected dose per gram, the “Radioactivity biodistribution, Pancreas” value ([3]; 0.25 h) was 3.91±0.33 % injected dose per gram and the “Radioactivity biodistribution, Spleen” value ([3]; 0.25 h) was 6.53±0.34 % injected dose per gram. For the same substance, the “Radioactivity biodistribution, Stomach” value ([3]; 0.25 h) was 0.48±0.04 % injected dose per organ, the “Radioactivity biodistribution, Tumor” value ([3]; 0.25 h) was 3.60±0.17 % injected dose per gram and the “T/B (tumor to blood ratio)” value ([3]; 0.25 h) was 0.08±0.01. For the same substance, the “Radioactivity biodistribution, Blood” value ([3]; 1 h) was 30.48±1.67 % injected dose per gram, the “Radioactivity biodistribution, Heart” value ([3]; 1 h) was 8.20±0.74 % injected dose per gram and the “Radioactivity biodistribution, Intestine” value ([3]; 1 h) was 5.85±0.11 % injected dose per gram. The “Radioactivity biodistribution, Kidneys” value ([3]; 1 h) was 10.60±0.38 % injected dose per gram, the “Radioactivity biodistribution, Liver” value ([3]; 1 h) was 18.45±0.81 % injected dose per gram and the “Radioactivity biodistribution, Lung” value ([3]; 1 h) was 15.92±0.58 % injected dose per gram. The “Radioactivity biodistribution, Muscle” value ([3]; 1 h) was 1.27±0.20 % injected dose per gram, the “Radioactivity biodistribution, Pancreas” value ([3]; 1 h) was 4.35±0.74 % injected dose per gram and the “Radioactivity biodistribution, Spleen” value ([3]; 1 h) was 5.65±0.98 % injected dose per gram. The “Radioactivity biodistribution, Stomach” value ([3]; 1 h) was 0.69±0.21 % injected dose per organ, the “Radioactivity biodistribution, Tumor” value ([3]; 1 h) was 5.49±0.53 % injected dose per gram and the “T/B (tumor to blood ratio)” value ([3]; 1 h) was 0.18±0.03. For the same substance, the “Radioactivity biodistribution, Blood” value ([3]; 3 h) was 15.33±0.81 % injected dose per gram, the “Radioactivity biodistribution, Heart” value ([3]; 3 h) was 6.70±0.59 % injected dose per gram and the “Radioactivity biodistribution, Intestine” value ([3]; 3 h) was 13.13±1.73 % injected dose per gram. For the same substance, the “Radioactivity biodistribution, Kidneys” value ([3]; 3 h) was 11.89±0.76 % injected dose per gram, the “Radioactivity biodistribution, Liver” value ([3]; 3 h) was 22.83±3.72 % injected dose per gram and the “Radioactivity biodistribution, Lung” value ([3]; 3 h) was 9.72±1.02 % injected dose per gram. For the same substance, the “Radioactivity biodistribution, Muscle” value ([3]; 3 h) was 1.49±0.15 % injected dose per gram, the “Radioactivity biodistribution, Pancreas” value ([3]; 3 h) was 5.25±0.57 % injected dose per gram and the “Radioactivity biodistribution, Spleen” value ([3]; 3 h) was 5.41±0.64 % injected dose per gram. For the same substance, the “Radioactivity biodistribution, Stomach” value ([3]; 3 h) was 1.17±0.82 % injected dose per organ, the “Radioactivity biodistribution, Tumor” value ([3]; 3 h) was 5.49±0.36 % injected dose per gram and the “T/B (tumor to blood ratio)” value ([3]; 3 h) was 0.36±0.04. For the same substance, the “Radioactivity biodistribution, Blood” value ([3]; 6 h) was 8.33±0.58 % injected dose per gram, the “Radioactivity biodistribution, Heart” value ([3]; 6 h) was 5.64±0.79 % injected dose per gram and the “Radioactivity biodistribution, Intestine” value ([3]; 6 h) was 14.08±2.39 % injected dose per gram. The “Radioactivity biodistribution, Kidneys” value ([3]; 6 h) was 11.40±1.18 % injected dose per gram, the “Radioactivity biodistribution, Liver” value ([3]; 6 h) was 17.61±2.53 % injected dose per gram and the “Radioactivity biodistribution, Lung” value ([3]; 6 h) was 5.56±0.75 % injected dose per gram. The “Radioactivity biodistribution, Muscle” value ([3]; 6 h) was 1.43±0.28 % injected dose per gram, the “Radioactivity biodistribution, Pancreas” value ([3]; 6 h) was 4.97±1.31 % injected dose per gram and the “Radioactivity biodistribution, Spleen” value ([3]; 6 h) was 4.94±1.51 % injected dose per gram. The “Radioactivity biodistribution, Stomach” value ([3]; 6 h) was 0.97±0.46 % injected dose per organ, the “Radioactivity biodistribution, Tumor” value ([3]; 6 h) was 7.31±1.12 % injected dose per gram and the “T/B (tumor to blood ratio)” value ([3]; 6 h) was 0.88±0.14. The “Radioactivity biodistribution, Blood” value ([3]; 24 h) was 1.61±0.27 % injected dose per gram, the “Radioactivity biodistribution, Heart” value ([3]; 24 h) was 3.78±0.39 % injected dose per gram and the “Radioactivity biodistribution, Intestine” value ([3]; 24 h) was 3.70±1.06 % injected dose per gram. The “Radioactivity biodistribution, Kidneys” value ([3]; 24 h) was 10.81±2.35 % injected dose per gram, the “Radioactivity biodistribution, Liver” value ([3]; 24 h) was 10.51±0.89 % injected dose per gram and the “Radioactivity biodistribution, Lung” value ([3]; 24 h) was 2.50±0.44 % injected dose per gram. The “Radioactivity biodistribution, Muscle” value ([3]; 24 h) was 1.02±0.16 % injected dose per gram, the “Radioactivity biodistribution, Pancreas” value ([3]; 24 h) was 3.92±0.68 % injected dose per gram and the “Radioactivity biodistribution, Spleen” value ([3]; 24 h) was 3.92±0.24 % injected dose per gram. The “Radioactivity biodistribution, Stomach” value ([3]; 24 h) was 0.54±0.07 % injected dose per organ, the “Radioactivity biodistribution, Tumor” value ([3]; 24 h) was 4.25±0.79 % injected dose per gram and the “T/B (tumor to blood ratio)” value ([3]; 24 h) was 2.74±0.89.
